Source: the RNAGym collection of RNA variant scans (doi:10.1093/nar/gkz1192)

B1: CPEB3 Ribozyme (parent)
chain: UAACAGGGGGCCACAGCAGAAGCGUUCACGUCGCAGCCCCUGUCAGAUUCUGGUGAAUCUGCGAAUUCUGCUGUAUAUCUC

Variants of: B1
Test: self-cleavage, relative activity (ratio to wild type); higher = more cleavage; in vitro, sequencing
In short: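 CPEB3 self-cleaving ribozyme mutant libraries were made by rounds of error-prone PCR, barcoded, and transcribed in vitro with T7 RNA polymerase for 5 hours at 37°C. Cleavage occurred during transcription and a 15 min DNase I step before EDTA stop. RNAs were reverse transcribed with template switching and Illumina-sequenced, with DNA sequencing mapping barcodes to variants. Relative activity is the variant's cleaved/total read fraction divided by wild type's (minimum 5 reads), averaged across three batches.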

Row | Variant | self-cleavage
1 | UAACAGGGGGCCGCAGCAGAAGCGUUCACGUCGCAGCCCCGGUCAGAUUCUGGUGAAUCUGCGAAUUCUGCUGUAUAUCUC | 0.37
2 | UAACAGGGGGCCGCAGCAGAAGCGUUCACGUCGCAGCCCCUGUCAGAUUCUGGUGAAUCUGCAAAUUCUGCUGUAUAUCUC | 0.68
3 | UAACAGGGGGCCGCAGCAGAAGCGUUCACGUCGCAGCCCCUGUCAGAUUCUGGUGAAUCUGCCAAUUCUGCUGUAUAUCUC | 0.81
4 | UAACAGGGGGCCGCAGCAGAAGCGCUCACGUCGCAGCCCCUGUCAGAUUCUGGUGAAUCUGCGAAUUCUGCUGUAUAUCUC | 0.36
5 | UAACAGGGGGCCGCAGCAGAAGCGAUCACGUCGCAGCCCCUGUCAGAUUCUGGUGAAUCUGCGAAUUCUGCUGUAUAUCUC | 0.29
6 | UAACAGGGGGCCGCAGCAGAAGCGUUCACGUCGCAGCCCCUGUCAGAUUCUGGUGAAGCUGCGAAUUCUGCUGUAUAUCUC | 0.2
7 | UAACAGGGGGCCGCAGCAGAAGCGUUCACGUCGCAGCCCCUGUCAGAUUCUGGUGAACCUGCGAAUUCUGCUGUAUAUCUC | 0.46
8 | UAACAGGGGGCCGCAGCAGAAGCGUUCACGUCGCAGCCCCUGUCAGAUUCUGUUGAAUCUGCGAAUUCUGCUGUAUAUCUC | 1.15
9 | UAACAGGGGGCCGCAGCAGAAGCGUUCACGUCGCAGCCCCUGUCAGAUUCUGAUGAAUCUGCGAAUUCUGCUGUAUAUCUC | 0.92
10 | UAACAGGGGGCCGCAGCAGAAGCGUUCACCUCGCAGCCCCUGUCAGAUUCUGGUGAAUCUGCGAAUUCUGCUGUAUAUCUC | 0.16
11 | UAACAGGGGGCCGCAGCAGAAGCGUUCACUUCGCAGCCCCUGUCAGAUUCUGGUGAAUCUGCGAAUUCUGCUGUAUAUCUC | 0.18
12 | UAACAGGGGGCCGCAGCAGAAGCGUUCACAUCGCAGCCCCUGUCAGAUUCUGGUGAAUCUGCGAAUUCUGCUGUAUAUCUC | 0.44
13 | UAACAGGGGGCCGCAGCAGAAGCGUUCACGUCGCAGCCCCUGGCAGAUUCUGGUGAAUCUGCGAAUUCUGCUGUAUAUCUC | 0.27
14 | UAACAGGGGGCCGCAGCAGAAGCGUUCACGUCGCAGCCCCUGCCAGAUUCUGGUGAAUCUGCGAAUUCUGCUGUAUAUCUC | 0.49
15 | UAACAGGGGGCCGCAGCAGAAGCGUUCACGUCGCAGCCCCUGACAGAUUCUGGUGAAUCUGCGAAUUCUGCUGUAUAUCUC | 0.93
16 | UAACAGGGGGCCGCAGCAGAAGCGUCCACGUCGCAGCCCCUGUCAGAUUCUGGUGAAUCUGCGAAUUCUGCUGUAUAUCUC | 0.38
17 | UAACAGGGGGCCGCAGCAGAAGCGUACACGUCGCAGCCCCUGUCAGAUUCUGGUGAAUCUGCGAAUUCUGCUGUAUAUCUC | 0.85

Row | Variant | self-cleavage
18 | UAACAGGGGGCCGCAGCAGAAGCGUGCACGUCGCAGCCCCUGUCAGAUUCUGGUGAAUCUGCGAAUUCUGCUGUAUAUCUC | 0.21
19 | UAACAGGGGGCCGCAGCAGAAACGUUCACGUCGCAGCCCCUGUCAGAUUCUGGUGAAUCUGCGAAUUCUGCUGUAUAUCUC | 0.19
20 | UAACAGGGGGCCGCAGCAGAACCGUUCACGUCGCAGCCCCUGUCAGAUUCUGGUGAAUCUGCGAAUUCUGCUGUAUAUCUC | 0.12
21 | UAACAGGGGGCCGCAGCAGAAGCGUUCACGACGCAGCCCCUGUCAGAUUCUGGUGAAUCUGCGAAUUCUGCUGUAUAUCUC | 0.5
22 | UAACAGGGGGCCGCAGCAGAAGCGUUCACGGCGCAGCCCCUGUCAGAUUCUGGUGAAUCUGCGAAUUCUGCUGUAUAUCUC | 0.51
23 | UAACAGGGGGCCGCAGCAGAAGCGUUCACGCCGCAGCCCCUGUCAGAUUCUGGUGAAUCUGCGAAUUCUGCUGUAUAUCUC | 0.45
24 | UAACAGGGGGCCGCAGCAGAAGCGUUCACGUCGCAGCCCCUGUCAGAUUCUGGUGAAUCUGCGAAUUCUGCUGUAUAUCUA | 1.23
25 | UAACAGGGGGCCGCAGCAGAAGCGUUCACGUCGCAGCCCCUGUCAGAUUCUGGUCAAUCUGCGAAUUCUGCUGUAUAUCUC | 0.23
26 | UAACAGGGGGCCGCAGCAGAAGCGUUCACGUCGCAGCCCCUGUCAGAUUCUGGUAAAUCUGCGAAUUCUGCUGUAUAUCUC | 0.79
27 | UAACAGGGGGCCGCAGCAGAAGCGUUCACGUCGCAGCCCCUGUCAGAUUCAGGUGAAUCUGCGAAUUCUGCUGUAUAUCUC | 0.91
28 | UAACAGGGGGCCGCAGCAGAAGCGUUCACGUCGCAGCCCCUGUCAGAUUCGGGUGAAUCUGCGAAUUCUGCUGUAUAUCUC | 0.84
29 | UAACAGGGGGCCGCAGCAGAAGCGUUCACGUCGCAGCCCCUGUCAGAUUCCGGUGAAUCUGCGAAUUCUGCUGUAUAUCUC | 0.85
30 | UAACAGGGGGCCGCAGCAGAAGCGUUCACGUCGCAGCCCCUGUCAGACUCUGGUGAAUCUGCGAAUUCUGCUGUAUAUCUC | 0.44
31 | UAACAGGGGGCCGCAGCAGAAGCGUUCACGUCGCAGCCCCUGUCAGAAUCUGGUGAAUCUGCGAAUUCUGCUGUAUAUCUC | 0.31
32 | UAACAGGGGGCCGCAGCAGAAGCGUUCACGUCGCAGCCCCUGUCAGAUUCUGGUGAAUCUGCGAAUUCAGCUGUAUAUCUC | 0.38
33 | UAACAGGGGGCCGCAGCAGAAGCGUUCACGUCGCAUCCCCUGUCAGAUUCUGGUGAAUCUGCGAAUUCUGCUGUAUAUCUC | 0.2
34 | UAACAGGGGGCCGCAGCAGAAGCGUUCACGUCGCAACCCCUGUCAGAUUCUGGUGAAUCUGCGAAUUCUGCUGUAUAUCUC | 0.35
